{"source": "patent US20120230976", "proteins": {"B1": {"name": "neprilysin from Rothia mucilaginosa ATCC 25296 (RefSeq ZP_05367591) (protein)", "chain": "MTTNSGITKEWVDETVKPGDDFFRHVNGKWLATHEIPADRPKDGGLYTLRDNAEKHVRELVEKIAKEQPESRIGALYNSFMDVEKIEADGLEPLLKEIAPILNSATPSHLAVTLALLSRAGLPQLFAWYTSNDPKDPKNYTFFLYQSGLGLPDESYYREEKHEAACAAYVEHIARMFQLTGLAEGFGLTPEQAAQLVFTHESELARLHWNVVENRDAEATYNPYQATELDEKFPGFPFSQWLLALGADPETLGQVIVAQPSFFEGAAKLFTSIPLMSWKLWAVWTVLRSRAPFMYDELVQESFNFYGKTLSGTQQIRERWKRGVGAVEKALGEEIGQEYVAVHFPPSHKEKMLVLVGNLLEAYRESIESLDWMTEATRQKALEKLSKFVTKIGYPDKWRDFSALELVPGDLFENLRRTGAFDADWLIARKGQPVDKAEWLMTPQTVNAYYMPPANEIVFPAAILQPPYFNPDADDAANYGNIGMIIGHEIGHGFDDQGSRYDGDGKLESWWTEEDYAKFKERTAALVEQYNAYVPVGLDPKFHVNGELTLGENIGDLAGMSIALKAYRLALKKQGIESLADAPVIDGMTGIQRFFFSNARGWCTKSRPQHAEVMISVDPHSPDEFRVNGVVRNIDEFYEAFGVSEGDALYLAPEERVRIW"}}, "molecular_target": "mixture of gliadins (SIGMA Cat. No. G3375)", "data": [{"protein": "B1", "values": [{"measurement": "gliadin zymography (proteolytic activity)", "result": "The clear bands observed in the zymogram gel confirmed proteolytic activity towards gliadin"}]}]}
